Reference: article PMC10849712 (bioRxiv, 2024)

How the values were obtained:
[1] = target: native HB3VAR03 PfEMP1 (CIDRα1.4) on P. falciparum-infected erythrocytes (Plasmodium falciparum HB3 (HB3VAR03), UniProt A0A0L7KL67, strain); assay: flow cytometry on cells
[2] = target: native IT4VAR19 PfEMP1 (CIDRα1.1) on P. falciparum-infected erythrocytes (Plasmodium falciparum, clone IT4 …, UniProt A3R6S3, strain); assay: flow cytometry on cells
[3] = target: native IT4VAR18 PfEMP1 (CIDRα1.6) on P. falciparum-infected erythrocytes (Plasmodium falciparum, clone IT4 …, UniProt A3R6S2, strain); assay: flow cytometry on cells
[4] = target: T1, single CIDRα1.4 domain of HB3VAR03 PfEMP1 (crystallised with C7 Fab) (Plasmodium falciparum HB3 (HB3VAR03), strain); assay: crystal structure
T1 chain: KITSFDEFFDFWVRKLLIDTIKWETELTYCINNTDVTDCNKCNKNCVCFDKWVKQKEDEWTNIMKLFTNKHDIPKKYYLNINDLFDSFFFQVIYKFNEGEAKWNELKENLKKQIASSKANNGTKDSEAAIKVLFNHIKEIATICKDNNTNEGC

[5] = target: T2, three-domain protein of IT4VAR22 PfEMP1 (NTSA-DBLα-CIDRα1.7-DBLβ) (Plasmodium falciparum IT4 (IT4VAR22), strain); assay: cryo-EM structure
T2 chain: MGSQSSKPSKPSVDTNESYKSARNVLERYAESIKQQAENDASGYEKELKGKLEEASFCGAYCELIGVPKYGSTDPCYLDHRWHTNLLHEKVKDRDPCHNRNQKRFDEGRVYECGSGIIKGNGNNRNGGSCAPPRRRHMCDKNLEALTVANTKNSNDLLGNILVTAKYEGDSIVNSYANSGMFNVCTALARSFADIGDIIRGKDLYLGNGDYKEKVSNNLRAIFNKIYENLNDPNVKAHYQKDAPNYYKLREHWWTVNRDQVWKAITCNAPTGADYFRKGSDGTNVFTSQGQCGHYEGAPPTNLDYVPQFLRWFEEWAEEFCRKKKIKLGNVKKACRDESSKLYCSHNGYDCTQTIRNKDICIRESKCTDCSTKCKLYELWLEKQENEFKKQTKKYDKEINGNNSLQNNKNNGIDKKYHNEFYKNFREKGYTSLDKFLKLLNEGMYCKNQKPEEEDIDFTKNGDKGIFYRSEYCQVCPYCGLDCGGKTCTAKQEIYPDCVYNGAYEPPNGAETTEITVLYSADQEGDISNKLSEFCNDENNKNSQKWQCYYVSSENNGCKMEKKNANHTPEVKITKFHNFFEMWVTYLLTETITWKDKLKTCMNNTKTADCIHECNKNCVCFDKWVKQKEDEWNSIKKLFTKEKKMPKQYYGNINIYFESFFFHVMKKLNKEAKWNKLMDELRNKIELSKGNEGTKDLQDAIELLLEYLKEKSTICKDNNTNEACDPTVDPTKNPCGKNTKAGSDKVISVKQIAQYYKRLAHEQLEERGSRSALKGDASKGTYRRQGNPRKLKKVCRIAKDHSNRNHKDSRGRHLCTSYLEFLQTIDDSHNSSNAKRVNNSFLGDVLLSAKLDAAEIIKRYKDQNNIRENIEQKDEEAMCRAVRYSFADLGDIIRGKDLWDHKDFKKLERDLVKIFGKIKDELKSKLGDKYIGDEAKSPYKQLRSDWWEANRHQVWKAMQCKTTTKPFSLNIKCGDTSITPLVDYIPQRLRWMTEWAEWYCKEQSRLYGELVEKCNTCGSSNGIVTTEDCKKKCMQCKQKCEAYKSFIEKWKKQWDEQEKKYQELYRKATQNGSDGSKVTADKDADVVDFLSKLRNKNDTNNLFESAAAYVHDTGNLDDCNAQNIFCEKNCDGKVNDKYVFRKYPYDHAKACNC

[6] = target: T3, three-domain protein of HB3VAR03 PfEMP1 (NTS-DBLα-CIDRα1.4-DBLβ) (Plasmodium falciparum HB3 (HB3VAR03), strain); assay: cryo-EM structure
T3 chain: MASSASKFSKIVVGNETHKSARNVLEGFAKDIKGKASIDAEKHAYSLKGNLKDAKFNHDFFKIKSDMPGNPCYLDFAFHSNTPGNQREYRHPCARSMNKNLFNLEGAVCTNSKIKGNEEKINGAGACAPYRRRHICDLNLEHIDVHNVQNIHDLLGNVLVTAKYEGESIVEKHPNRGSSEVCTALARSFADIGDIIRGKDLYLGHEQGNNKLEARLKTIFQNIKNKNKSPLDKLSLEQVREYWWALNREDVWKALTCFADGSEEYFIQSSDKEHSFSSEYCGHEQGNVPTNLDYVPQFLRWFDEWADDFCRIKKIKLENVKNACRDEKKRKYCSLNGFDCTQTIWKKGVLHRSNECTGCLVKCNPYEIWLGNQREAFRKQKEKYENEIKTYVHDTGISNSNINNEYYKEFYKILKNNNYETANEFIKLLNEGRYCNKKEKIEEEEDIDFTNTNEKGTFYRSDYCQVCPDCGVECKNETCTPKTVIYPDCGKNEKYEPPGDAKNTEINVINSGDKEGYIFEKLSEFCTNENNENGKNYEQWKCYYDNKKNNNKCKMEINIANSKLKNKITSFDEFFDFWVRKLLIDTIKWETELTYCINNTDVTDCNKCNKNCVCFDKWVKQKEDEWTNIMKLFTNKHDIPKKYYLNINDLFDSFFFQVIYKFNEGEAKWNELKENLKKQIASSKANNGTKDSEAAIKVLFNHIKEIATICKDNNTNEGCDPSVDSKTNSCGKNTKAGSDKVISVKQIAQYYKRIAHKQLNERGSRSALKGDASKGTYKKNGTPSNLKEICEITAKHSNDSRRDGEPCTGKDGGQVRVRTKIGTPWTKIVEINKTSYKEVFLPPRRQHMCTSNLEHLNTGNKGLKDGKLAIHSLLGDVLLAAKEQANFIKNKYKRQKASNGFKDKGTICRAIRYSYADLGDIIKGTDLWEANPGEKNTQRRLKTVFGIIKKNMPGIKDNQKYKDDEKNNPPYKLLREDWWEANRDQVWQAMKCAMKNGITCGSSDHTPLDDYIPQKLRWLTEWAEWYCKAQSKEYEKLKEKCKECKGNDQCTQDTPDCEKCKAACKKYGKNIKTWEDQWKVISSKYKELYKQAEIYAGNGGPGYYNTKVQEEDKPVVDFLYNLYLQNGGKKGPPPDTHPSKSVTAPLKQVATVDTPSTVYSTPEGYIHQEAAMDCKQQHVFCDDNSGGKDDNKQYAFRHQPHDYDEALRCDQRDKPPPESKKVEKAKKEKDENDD

B1: mAb C7, recombinant IgG1 (antibody, V domains shown)
VH: EVQLVESGGGLAQPGGSLRLSCAASGFTFRDHGMTWVRQVSGKGLEWLSYITAGSKMSYYSDSVRGRFTISRDNAKNSLYLQMNGLTDEDSAIYYCVKGGGNCPSDTCYPSGYFGLDVWGQGTTVTVSS
VL: QSELTQPPSMSVSPGQTAMITCSMNKYSYISWYQQRPGQSPALVIYQDTRRPSGIPERFSGSNSENTAILTITGTRDLDEADYFCQGWDSNVKAVLFGGGTKLTVL
[1]
  binding result: binds
[2]
  binding result: no binding (tested: 100 μg/mL)
[3]
  binding result: binds

B2: mAb C74, recombinant IgG1 (antibody, V domains shown)
VH: EVQLVQSGGALVRPGGSLRLSCAASGFDFSDFEMNWVRQAPGKGLEWISYISKISAASFYADSVEGRFTISRDNTKNLLWLEMTSLRDEDTAVYYCARDLPGYLERVFDLWGQGTLVSVSS
VL: EIVLTQSPATLSLSPGEDATLSCRASQSVGSALAWYQHRPGQSPRLLIYDASTRATGIPARFSGSGSGTEFTLTVSSLTSEDFAVYYCQEYKNSVPPTWTFGQGTKVEIK
[1]
  binding result: binds
[2]
  binding result: no binding (tested: 100 μg/mL)
[3]
  binding result: binds

B3: C7 Fab (Fab, V domains shown)
VH: EVQLVESGGGLAQPGGSLRLSCAASGFTFRDHGMTWVRQVSGKGLEWLSYITAGSKMSYYSDSVRGRFTISRDNAKNSLYLQMNGLTDEDSAIYYCVKGGGNCPSDTCYPSGYFGLDVWGQGTTVTVSS
VL: QSELTQPPSMSVSPGQTAMITCSMNKYSYISWYQQRPGQSPALVIYQDTRRPSGIPERFSGSNSENTAILTITGTRDLDEADYFCQGWDSNVKAVLFGGGTKLTVL
[4]
  binding result: binds
[5]
  binding result: binds
[6]
  binding result: binds

B4: C74 Fab (Fab, V domains shown)
VH: EVQLVQSGGALVRPGGSLRLSCAASGFDFSDFEMNWVRQAPGKGLEWISYISKISAASFYADSVEGRFTISRDNTKNLLWLEMTSLRDEDTAVYYCARDLPGYLERVFDLWGQGTLVSVSS
VL: EIVLTQSPATLSLSPGEDATLSCRASQSVGSALAWYQHRPGQSPRLLIYDASTRATGIPARFSGSGSGTEFTLTVSSLTSEDFAVYYCQEYKNSVPPTWTFGQGTKVEIK
[5]
  binding result: binds
